The target of this assay is SMARCB1 (aa 169–385) (human, UniProt Q12824 169-385). Put plainly: ITC; second site (Kd2, two-site model).

The results in this text go back to PMC7506551 (2020).

Usually Kd stands for a measure of binding affinity in units of concentration. The low end stands for higher affinity, the high end for lower affinity.

Sequence of SMARCB1 (aa 169–385) (Q12824 169-385): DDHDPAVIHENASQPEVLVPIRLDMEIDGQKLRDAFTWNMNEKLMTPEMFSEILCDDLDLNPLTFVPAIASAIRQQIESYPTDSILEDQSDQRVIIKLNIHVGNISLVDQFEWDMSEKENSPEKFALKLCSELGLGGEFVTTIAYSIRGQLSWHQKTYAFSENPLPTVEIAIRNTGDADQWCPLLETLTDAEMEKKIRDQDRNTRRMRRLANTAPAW

B1: SMARCC2 (aa 325–518) (domain or fragment)
chain: TKSKRGHREEEQEDLTKDMDEPSPVPNVEEVTLPKTVNTKKDSESAPVKGGTMTDLDEQEDESMETTGKDEDENSTGNKGEQTKNPDLHEDNVTEQTHHIIIPSYAAWFDYNSVHAIERRALPEFFNGKNKSKTPEIYLAYRNFMIDTYRLNPQEYLTSTACRRNLAGDVCAIMRVHAFLEQWGLINYQVDAES
With B1, the Kd amounted to 1.96 nM.
